T1: AMACR (alpha-methylacyl-CoA racemase, isoform CRA_c), homemade recombinant (Homo sapiens, UniProt Q9UHK6 Q9UHK6:1-382)
T1 sequence: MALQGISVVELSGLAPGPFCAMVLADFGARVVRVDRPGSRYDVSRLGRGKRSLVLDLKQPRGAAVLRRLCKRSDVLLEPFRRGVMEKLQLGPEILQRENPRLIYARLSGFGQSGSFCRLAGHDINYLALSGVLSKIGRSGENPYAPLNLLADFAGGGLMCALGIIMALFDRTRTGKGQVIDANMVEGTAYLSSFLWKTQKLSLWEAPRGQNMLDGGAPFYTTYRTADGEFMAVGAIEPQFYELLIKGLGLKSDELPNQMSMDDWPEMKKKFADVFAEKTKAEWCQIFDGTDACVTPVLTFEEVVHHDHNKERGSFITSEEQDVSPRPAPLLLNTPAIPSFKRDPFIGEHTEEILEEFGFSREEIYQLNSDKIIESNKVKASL


Key:
[1] = target: T2, Human serum albumin (HSA) (Homo sapiens, UniProt P02768 P02768:25-609); experiment: ELAA, 0.5 uM aptamer, 0.2 uM protein; also no significant cross-reactivity in FIG. 6 dose series; settings: tags: Sigma-Aldrich; label: biotin; stem-loops, B-form-like CD
Method: (§1) Enzyme-linked aptamer assays with typical black opaque 96-well polystyrene microtiter plates that resembled ELISA assays were carried out for (1) assessment of the affinity and specificity of the selected AMACR binding aptamers and (2) proof-of-concept fluorescent AMACR detection using aptamers. For the first task, varied concentrations of aptamers were tested with a constant protein concentration ([…]); for the second task, varied concentrations of proteins were detected using a constant aptamer concentration (500 nM). Both used the following ELAA protocol unless otherwise noted. For protein coating, AMACR diluted in 0.05 M sodium carbonate buffer (pH9.6) was added to the wells of the plates (100 μL/well) and incubated at 4° C. overnight. After incubation, the wells were washed three times with 200 μL/well of selection buffer containing 0.05% Tween 20. For blocking, each AMACR-coated well was added with 200 μL of 3 wt % BSA in the selection buffer containing 0.05% Tween 20 and was then incubated at 37° C. for 2 h. Afterward, wells were washed as previously described. Before protein assays, biotin-labeled aptamer sequences were suspended in the selection buffer, heated to 95° C. for 5 min, and gradually cooled to 25° C. […] Finally, the fluorescent signal of each well was read by a fluorescent microplate reader (excitation at 435 nm and emission at 555 nm). […]

[2] = target: T1, AMACR (alpha-methylacyl-CoA racemase, …); experiment: apparent Kd; fluorescent ELAA, AMACR coated at 0.2 uM; 50 mM Tris/HCl, 100 mM NaCl, 4 mM KCl, 2.5 mM MgCl2, 1 mM CaCl2, pH 7.4, room temperature; settings: label: biotin; stem-loops, B-form-like CD
Method: as §1

[3] = target: Bovine serum albumin (BSA) (Bos taurus, UniProt P02769 P02769:25-607); experiment: ELAA, 0.5 uM aptamer, 0.2 uM protein; settings: tags: Sigma-Aldrich; label: biotin; stem-loops, B-form-like CD
Method: (§2) Enzyme-linked aptamer assays with typical black opaque 96-well polystyrene microtiter plates that resembled ELISA assays were carried out for (1) assessment of the affinity and specificity of the selected AMACR binding aptamers and (2) proof-of-concept fluorescent AMACR detection using aptamers. For the first task, varied concentrations of aptamers were tested with a constant protein concentration ([…]); for the second task, varied concentrations of proteins were detected using a constant aptamer concentration (500 nM). Both used the following ELAA protocol unless otherwise noted. For protein coating, AMACR diluted in 0.05 M sodium carbonate buffer (pH9.6) was added to the wells of the plates (100 μL/well) and incubated at 4° C. overnight. After incubation, the wells were washed three times with 200 μL/well of selection buffer containing 0.05% Tween 20. For blocking, each AMACR-coated well was added with 200 μL of 3 wt % BSA in the selection buffer containing 0.05% Tween 20 and was then incubated at 37° C. for 2 h. Afterward, wells were washed as previously described. Before protein assays, biotin-labeled aptamer sequences were suspended in the selection buffer, heated to 95° C. for 5 min, and gradually cooled to 25° C. Then each protein-coated well was added with 100 μL of aptamer solution (in the selection buffer) and was incubated at room temperature for 1 h followed by the same wash procedure. After that, each well was added with two drops (ca. 100 μL) of an alkaline phosphatase-conjugated streptavidin (Strep-AP) solution (0.003 mg/mL) (Abcam) and incubated at room temperature for 30 min followed by the washes. For fluorescent signal development, each well was added with 100 μL of AttoPhos® AP fluorescent substrate solution (Promega) and incubated in dark for at least 15 min. Finally, the fluorescent signal of each well was read by a fluorescent microplate reader (excitation at 435 nm and emission at 555 nm).
(§3) FIG. 5A represented the results of the equilibrium AMACR total binding assays using the fluorescent ELAA format for AMC51, AMC55, and AMC56.

[4] = target: T2, Human serum albumin (HSA); experiment: ELAA, 0.5 uM aptamer, 0.2 uM protein; settings: tags: Sigma-Aldrich; label: biotin; stem-loops, B-form-like CD
Method: as §2, §3

[5] = target: T1, AMACR (alpha-methylacyl-CoA racemase, …); experiment: apparent Kd; fluorescent ELAA, same buffer, room temperature; settings: label: biotin; stem-loops, B-form-like CD
Method: as §1

T2 sequence (P02768 25-609, one chain of several): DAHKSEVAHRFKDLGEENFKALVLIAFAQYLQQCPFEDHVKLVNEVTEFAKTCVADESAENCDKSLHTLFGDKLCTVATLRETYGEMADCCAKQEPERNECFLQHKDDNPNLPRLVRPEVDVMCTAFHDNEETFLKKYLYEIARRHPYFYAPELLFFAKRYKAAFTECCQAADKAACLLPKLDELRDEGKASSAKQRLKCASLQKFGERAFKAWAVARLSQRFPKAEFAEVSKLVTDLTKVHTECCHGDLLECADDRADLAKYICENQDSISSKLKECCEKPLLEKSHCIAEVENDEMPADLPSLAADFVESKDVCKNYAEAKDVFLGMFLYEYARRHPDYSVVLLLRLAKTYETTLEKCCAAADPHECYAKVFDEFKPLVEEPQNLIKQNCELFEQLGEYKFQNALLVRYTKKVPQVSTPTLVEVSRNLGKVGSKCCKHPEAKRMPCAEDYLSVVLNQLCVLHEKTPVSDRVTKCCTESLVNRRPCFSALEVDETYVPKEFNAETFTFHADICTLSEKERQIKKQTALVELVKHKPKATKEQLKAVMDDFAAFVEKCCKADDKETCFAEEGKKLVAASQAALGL
Bovine serum albumin (BSA), sequence (P02769 25-607, one chain of several): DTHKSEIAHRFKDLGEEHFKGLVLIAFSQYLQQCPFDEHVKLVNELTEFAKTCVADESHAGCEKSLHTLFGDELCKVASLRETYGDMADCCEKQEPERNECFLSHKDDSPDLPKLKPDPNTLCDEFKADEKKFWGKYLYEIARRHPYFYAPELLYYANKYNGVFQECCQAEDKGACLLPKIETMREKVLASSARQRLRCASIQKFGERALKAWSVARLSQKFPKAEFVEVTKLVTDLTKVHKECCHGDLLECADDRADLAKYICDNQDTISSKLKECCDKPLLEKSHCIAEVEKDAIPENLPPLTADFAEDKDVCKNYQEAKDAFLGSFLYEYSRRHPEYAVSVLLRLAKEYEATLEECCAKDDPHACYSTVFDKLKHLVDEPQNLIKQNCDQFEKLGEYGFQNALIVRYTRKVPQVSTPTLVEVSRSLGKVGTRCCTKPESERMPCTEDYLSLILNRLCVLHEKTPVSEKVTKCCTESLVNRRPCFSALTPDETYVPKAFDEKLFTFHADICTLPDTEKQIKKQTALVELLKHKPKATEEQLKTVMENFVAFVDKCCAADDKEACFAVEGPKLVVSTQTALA

Row | Binder | binding result [1] | Kd [2] [nM] | binding result [3] | binding result [4] | Kd [5] [nM]
1 | AMC51 (ssDNA) DNA: CCCTACGGCGCTAACCCATGCTACGAATTCGTTGTTAAACAATAGGCCACCGTGCTACAA | no binding | 49 | no binding | – | –
2 | AMC55 (ssDNA) DNA: CCCTACGGCGCTAACCAGTATGTTCCGGATTGGAGAGCTCCTGTTGCCACCGTGCTACAA | – | – | no binding | no binding | 139
3 | AMC56 (ssDNA) DNA: CCCTACGGCGCTAACCCAGCTACTCTAGAACCCATTATATTTTGGGCCACCGTGCTACAA | – | – | no binding | no binding | 65
